What was measured:
[1] = target: GABAA receptor alpha-1 subunit (GABRA1) (human) (UniProt P14867); assay: cell-based or functional assay
[2] = target: GABAA receptor beta-2 subunit (GABRB2) (human) (UniProt P47870); assay: cell-based or functional assay
GABAA receptor beta-2 subunit (GABRB2) (human), sequence (P47870 26-512): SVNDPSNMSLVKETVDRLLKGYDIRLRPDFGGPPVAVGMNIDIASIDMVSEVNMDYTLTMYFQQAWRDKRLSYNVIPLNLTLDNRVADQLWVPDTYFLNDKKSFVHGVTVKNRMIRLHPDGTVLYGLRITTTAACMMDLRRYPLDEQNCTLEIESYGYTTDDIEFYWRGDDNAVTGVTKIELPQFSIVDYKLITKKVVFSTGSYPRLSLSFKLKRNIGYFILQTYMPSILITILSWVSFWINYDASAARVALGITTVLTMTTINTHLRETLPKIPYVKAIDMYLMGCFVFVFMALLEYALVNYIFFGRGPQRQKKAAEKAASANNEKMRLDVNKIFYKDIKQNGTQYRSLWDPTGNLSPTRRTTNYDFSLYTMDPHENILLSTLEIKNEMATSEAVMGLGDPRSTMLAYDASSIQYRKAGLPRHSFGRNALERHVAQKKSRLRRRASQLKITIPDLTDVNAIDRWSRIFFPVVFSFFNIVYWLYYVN

GABAA receptor alpha-1 subunit (GABRA1) (human), sequence (P14867 28-456): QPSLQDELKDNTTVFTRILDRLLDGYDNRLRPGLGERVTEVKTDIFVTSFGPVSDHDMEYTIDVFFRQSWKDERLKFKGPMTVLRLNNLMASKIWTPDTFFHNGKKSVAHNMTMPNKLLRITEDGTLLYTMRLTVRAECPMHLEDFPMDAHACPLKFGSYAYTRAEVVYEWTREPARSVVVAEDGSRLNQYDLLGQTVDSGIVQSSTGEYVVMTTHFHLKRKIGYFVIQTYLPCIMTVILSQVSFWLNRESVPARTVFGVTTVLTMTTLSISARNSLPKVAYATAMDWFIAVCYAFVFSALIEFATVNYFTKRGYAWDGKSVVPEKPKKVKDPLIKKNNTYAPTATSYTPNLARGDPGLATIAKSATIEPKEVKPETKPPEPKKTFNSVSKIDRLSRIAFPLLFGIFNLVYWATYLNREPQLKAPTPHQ

partial inhibition of the GABA current by Zn2+ (10 µM), Xenopus oocytes, two-electrode voltage clamp [1] [%]	partial inhibition of the GABA current by Zn2+ (10 µM), Xenopus oocytes, two-electrode voltage clamp [2] [%]	Substance
40	40	GABAA receptor gamma-2 subunit R43Q mutant, GABRG2(R43Q) (from UniProt P18507 40-475)
37	37	wild-type GABAA receptor gamma-2 subunit (GABRG2) (from UniProt P18507 40-475)

Source: patent US20040038236A1
